Reference: patent US20230002481A1 (Chugai, published 2023)

Molecular target: T1, recombinant cyno C1r2s2 His/Flag tetramer (cynomolgus monkey, limits assumed)
T1 construct: Heterotetramer of two C1r-His and two C1s-Flag chains, co-expressed in FreeStyle293-F cells; also called cyno C1r2s2s
T1 chain 1: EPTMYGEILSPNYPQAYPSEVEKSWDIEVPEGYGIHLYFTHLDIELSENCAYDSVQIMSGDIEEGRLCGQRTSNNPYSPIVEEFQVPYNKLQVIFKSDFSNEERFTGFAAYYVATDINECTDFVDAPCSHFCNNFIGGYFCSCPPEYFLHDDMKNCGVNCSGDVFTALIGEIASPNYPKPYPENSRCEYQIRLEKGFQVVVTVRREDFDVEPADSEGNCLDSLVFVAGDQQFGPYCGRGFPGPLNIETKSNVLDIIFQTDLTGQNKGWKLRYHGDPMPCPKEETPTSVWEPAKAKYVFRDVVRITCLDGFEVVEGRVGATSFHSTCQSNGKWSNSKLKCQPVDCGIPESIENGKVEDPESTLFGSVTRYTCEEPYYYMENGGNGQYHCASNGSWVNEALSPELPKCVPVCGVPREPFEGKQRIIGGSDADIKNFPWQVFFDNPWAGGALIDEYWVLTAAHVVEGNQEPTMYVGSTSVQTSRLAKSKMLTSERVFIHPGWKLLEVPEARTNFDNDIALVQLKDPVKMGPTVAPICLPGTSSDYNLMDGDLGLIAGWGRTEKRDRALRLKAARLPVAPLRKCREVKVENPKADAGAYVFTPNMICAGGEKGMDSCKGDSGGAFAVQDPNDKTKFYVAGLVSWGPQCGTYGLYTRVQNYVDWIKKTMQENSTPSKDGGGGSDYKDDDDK
T1 chain 2: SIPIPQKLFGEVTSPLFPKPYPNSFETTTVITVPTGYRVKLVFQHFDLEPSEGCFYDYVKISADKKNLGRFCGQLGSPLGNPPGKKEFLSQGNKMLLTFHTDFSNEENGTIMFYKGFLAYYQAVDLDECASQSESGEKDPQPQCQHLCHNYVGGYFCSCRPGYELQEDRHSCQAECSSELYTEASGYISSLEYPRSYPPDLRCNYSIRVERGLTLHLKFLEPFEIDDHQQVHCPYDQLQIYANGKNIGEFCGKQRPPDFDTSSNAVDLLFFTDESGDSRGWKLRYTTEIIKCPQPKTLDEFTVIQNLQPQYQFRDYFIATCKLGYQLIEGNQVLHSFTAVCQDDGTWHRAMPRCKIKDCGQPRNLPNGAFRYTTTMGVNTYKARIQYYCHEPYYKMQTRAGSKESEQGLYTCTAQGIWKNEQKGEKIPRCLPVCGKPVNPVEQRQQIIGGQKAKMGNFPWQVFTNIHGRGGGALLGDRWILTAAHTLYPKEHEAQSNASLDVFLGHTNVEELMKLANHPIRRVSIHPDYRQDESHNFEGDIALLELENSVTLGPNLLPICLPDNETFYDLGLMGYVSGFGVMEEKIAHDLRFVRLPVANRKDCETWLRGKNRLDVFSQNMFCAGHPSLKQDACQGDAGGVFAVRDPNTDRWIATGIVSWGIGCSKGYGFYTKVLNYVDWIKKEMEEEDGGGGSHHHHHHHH
Assay: SPR (Biacore), antibody captured on ProA/G, antigen as analyte, 37 C, pH7.4, 1.2 mM CaCl2; pH 7.4
Description: The kinetic parameters of anti-C1s antibodies against recombinant human C1s (as described in PCT/JP2018/042054), human C1r2s2, and cyno C1r2s2 His/Flag (also referred as cyno C1r2s2 in the Table and Figures) were assessed at pH7.4 and pH5.8, at 37 degrees C. using BIACORE (registered trademark) T200 instrument (GE Healthcare) or BIACORE 4000 (GE Healthcare). ProAG (Pierce) was immobilized onto a CM4 sensorchip using amine coupling kit (GE Healthcare) according to the recommended settings by GE Healthcare. Antibodies and analytes were diluted into the respective running buffers, ACES pH7.4 and pH5.8 (20 mM ACES, 150 mM NaCl, 1.2 mM CaCl₂, 1 mg/ml BSA, 1 mg/ml CMD, 0.05% Tween 20, 0.005 w/v % NaN₃). Each antibody was captured onto the sensor surface by ProA/G. Antibody capture levels were typically 100-200 resonance units (RU). Then, recombinant C1s was injected at concentrations of 25 and 50 nM followed by dissociation at pH7.4 and pH5.8. The surface was regenerated using 10 mM Glycine-HCl, pH1.5. Kinetic parameters at neutral pH conditions and acidic conditions were determined by fitting the sensorgrams with 1:1 binding model using BIACORE (registered trademark) T200 Evaluation software, version 2.0 (GE Healthcare) or BIACORE 4000 Evaluation software. The dissociation rate at pH5.8 (after dissociation at pH7.4, indicated as pH5.8* in TABLE 2) was determined by processing and fitting data using Scrubber 2.0 (BioLogic Software) curve fitting software. The association rate (ka), dissociation rate (kd), binding affinity (KD) at pH7.4 and pH5.8 condition, and dissociation rate (kd) at pH5.8* condition of the antibodies are listed in TABLE 2. Some kinetic parameters of COS0098pHv1 in acidic condition were not correctly calculated because of its weak binding response.
Also, to observe the cross-reactivity of anti-C1s antibodies against human C1r2s2 and cyno C1r2s2 (cyno C1r2s2 His/Flag), BIACORE (registered trademark) kinetics analysis was performed.

B1: COS0098bb (antibody, V domains shown)
VH: QSVEESGGRLVTPGTPLTLTCTVSGFSLTKYTVSWVRQAPGKGLEWIGIINTGGSAYYATWAKGRFTFSKTSTTVDLQITSPTTEDTATYFCARGNGDTDYTNLWGPGTLVTVSS
VL: QVLTQTPSSVSEPVGGTVTINCQASENIYSALAWYQQKPGQPPKLLIYGASNLESGVPSRFKGSGSGTQFTLTISDLECADAATYYCQQYYFTSSTFGGGTKVEIK
notes: Anti-C1s rabbit antibody, parent of COS0098pHv1; the antibody was captured by ProA/G; also called anti-C1s antibody COS0098bb
B1 gave a Kd of 0.0821 nM, a koff of 8.1e-05 s⁻¹ and a kon of 987000 M⁻¹ s⁻¹.
